What is called IC50 is the concentration that gives 50% inhibition. The Kd is the free concentration of one partner at which half of the binding sites on the other are occupied at equilibrium, for simple one-to-one binding.

“And” between values parts separate entries of the source, which are not always exact repeats. Equal values may be shown once.

This note sets out measurements from patent publication US20260022176A1 (PARAGON THERAPEUTICS, published 2026).

Assay [1] has as its target α4β1 integrin on cells (α4β1-positive Ramos cells; HuT-78 cells) (UniProt P13612 34-1032; P05556 21-798, limits assumed). In words: cell-based or functional assay.
The target of assay [2] is T1, monkey α4β7 integrin on monkey PBMCs (monkey).
T1 construct: whole, on cells; Receptor occupancy on CD4+, CD20+ and CD45RO+ cells from monkey donors
In words: receptor occupancy: competition with fluorescently labeled antibody, flow cytometry; CD45RO+ memory T cells, monkey PBMCs; n = 1 donor. The procedure: (§1) The IC₅₀ values for competitive inhibition were determined by titrating unlabeled Ab001 into samples equilibrated with EC₅₀ concentrations of fluorescently labeled Ab001. Ab001 and Comparator Antibody Receptor Occupancy (IC₅₀) on CD4+, CD20+, and CD45RO+Cells from Human and Monkey Donors are shown in Table 2B.
On the technique in general: Flow cytometry measures light scatter and fluorescence of single cells or particles in a stream.

The target of assay [3] is T1, monkey α4β7 integrin on monkey PBMCs. In words: receptor occupancy: competition with fluorescently labeled antibody, flow cytometry; CD4+ Th cells, monkey PBMCs; range, n = 3 donors. The procedure:
as §1

The target is the same in assay [4]. In words: receptor occupancy: competition with fluorescently labeled antibody, flow cytometry; CD20+ B cells, monkey PBMCs; range, n = 3 donors. The procedure:
as §1

Assay [5] concerns the target T2, mouse α4β7 integrin on mouse PBMCs (mouse, UniProt Q00651 41-1039; P26011 20-806).
T2 construct: whole, on cells; That the target on them is α4β7 is inferred from the purpose of the study; also called cells isolated from mice
As to the kind of experiment: flow cytometry on cryopreserved mouse PBMCs.

In assay [6] the target is T1, monkey α4β7 integrin on monkey PBMCs. In words: receptor occupancy: competition with fluorescently labeled antibody, flow cytometry; all cell types, monkey PBMCs; mean, n = 7. As for the experimental part:
as §1

The next assay has as its target T3, Dog- α4β7 (Dog, UniProt A0A8I3PRY8 36-976; A0A8I3P7W0 20-723).
T3 construct: SPR antigen; construct not described; also called dog α4β7 integrin; copies: 1 + 1
In words: SPR with multiple cycle kinetics.

Another assay concerns the target T4, Rabbit- α4β7 (Rabbit, UniProt G1TY34 34-977; G1SFE7 20-723).
T4 construct: SPR antigen; construct not described; also called rabbit α4β7 integrin; copies: 1 + 1
In words: SPR with multiple cycle kinetics.

For another assay, the target named is T5, Cyno- α4β7 (Cyno).
T5 construct: SPR antigen; construct not described; also called cynomolgus α4β7 integrin
As to the kind of experiment: SPR with multiple cycle kinetics.

Assay [7] concerns the target T6, rat α4β7 integrin on rat PBMCs (rat, UniProt D3ZMQ3 38-1036; G3V7M2 20-791).
T6 construct: whole, on cells; That the target on them is α4β7 is inferred from the purpose of the study; also called cells isolated from rats
In words: flow cytometry on cryopreserved rat PBMCs.

B1: Natalizumab (antibody, V domains shown)
VH: QVQLVQSGAEVKKPGASVKVSCKASGFNIKDTYIHWVRQAPGQRLEWMGRIDPANGYTKYDPKFQGRVTITADTSASTAYMELSSLRSEDTAVYYCAREGYYGNYGVYAMDYWGQGTLVTVSS
VL: DIQMTQSPSSLSASVGDRVTITCKTSQDINKYMAWYQQTPGKAPRLLIHYTSALQPGIPSRFSGSGSGRDYTFTISSLQPEDIATYYCLQYDNLWTFGQGTKVEIK
In the case of B1, the “VCAM-1 Inhibition IC50 (adhesion of HuT-78 cells to coated recombinant VCAM-1)” value in assay [1] turned out to be 230 pM.

B2: α4β7 binding antibody Ab001 (antibody, human IgG1, kappa)
heavy: QVQLVQSGAEVKKPGASVKVSCKGSGYTFTSYWMHWVRQAPGQRLEWIGEIDPSESNTNYNQKFKGRVTLTVDISASTAYMELSSLRSEDTAVYYCARGGYDGWDYAIDYWGQGTLVTVSSASTKGPSVFPLAPSSKSTSGGTAALGCLVKDYFPEPVTVSWNSGALTSGVHTFPAVLQSSGLYSLSSVVTVPSSSLGTQTYICNVNHKPSNTKVDKKVEPKSCDKTHTCPPCPAPELAGAPSVFLFPPKPKDTLYITREPEVTCVVVDVSHEDPEVKFNWYVDGVEVHNAKTKPREEQYNSTYRVVSVLTVLHQDWLNGKEYKCKVSNKALPAPIEKTISKAKGQPREPQVYTLPPSRDELTKNQVSLTCLVKGFYPSDIAVEWESNGQPENNYKTTPPVLDSDGSFFLYSKLTVDKSRWQQGNVFSCSVMHEALHNHYTQKSLSLSPG
light: DVVMTQSPLSLPVTPGEPASISCRSSQSLAKSYGNTYLSWYLQKPGQSPQLLIYGISNRFSGVPDRFSGSGSGTDFTLKISRVEAEDVGVYYCLQGTHQPYTFGQGTKVEIKRTVAAPSVFIFPPSDEQLKSGTASVVCLLNNFYPREAKVQWKVDNALQSGNSQESVTEQDSKDSTYSLSSTLTLSKADYEKHKVYACEVTHQGLSSPVTKSFNRGEC
notes: also called long acting α4β7 targeting molecule; Ab001-A647
Regarding B2, the concentration for half-maximal inhibition (IC50) in assay [2] is 530 pM; in assay [3], 490 pM and 540 pM; in assay [4], 460 pM and 500 pM; in assay [6], 500 pM. The binding result in assay [5] and in [7] was “no binding” each time. Further, the figures for the Kd with Dog- α4β7, in the assay with Rabbit- α4β7 and with Cyno- α4β7 were 4810 pM, 6260 pM and 2720 pM, respectively.

B3: comparator antibody (antibody, human IgG1, kappa)
heavy: not shown
light: DVVMTQSPLSLPVTPGEPASISCRSSQSLAKSYGNTYLSWYLQKPGQSPQLLIYGISNRFSGVPDRFSGSGSGTDFTLKISRVEAEDVGVYYCLQGTHQPYTFGQGTKVEIKRTVAAPSVFIFPPSDEQLKSGTASVVCLLNNFYPREAKVQWKVDNALQSGNSQESVTEQDSKDSTYSLSSTLTLSKADYEKHKVYACEVTHQGLSSPVTKSFNRGEC
B3: the IC50 was 580 pM in [2]; 480 pM and 600 pM in [3]; 420 pM and 660 pM in [4]; 560 pM in assay [6]. The binding result in assay [5] and in assay [7] was “no binding” each time. The values for the Kd in the assay with Dog- α4β7, with Rabbit- α4β7 and with Cyno- α4β7 were 1770 pM, 5340 pM and 1200 pM, respectively.
